Experimental data: patent US6881827B2, “Molecular cloning of a 7TM receptor (AXOR34) and screening methods thereof” (SmithKline Beecham Corporation, priority 1999, dated 2005)

Target: T1, AXOR34 (Homo sapiens, UniProt Q9GZQ4)
T1 construct: expressed in transfected cells; host or cells: HEK-293 cells, transient transfection (pCDN vector as the empty-vector control)
Experiment: FLIPR calcium mobilization assay in HEK-293 cells transiently transfected with AXOR34
Type: cell-based
Settings: ligand concentrations 1 μM-0.1 nM
Description: There was no concentration-dependent activity for pCDNs or untransfected cells.

T1 sequence (Q9GZQ4 whole entry): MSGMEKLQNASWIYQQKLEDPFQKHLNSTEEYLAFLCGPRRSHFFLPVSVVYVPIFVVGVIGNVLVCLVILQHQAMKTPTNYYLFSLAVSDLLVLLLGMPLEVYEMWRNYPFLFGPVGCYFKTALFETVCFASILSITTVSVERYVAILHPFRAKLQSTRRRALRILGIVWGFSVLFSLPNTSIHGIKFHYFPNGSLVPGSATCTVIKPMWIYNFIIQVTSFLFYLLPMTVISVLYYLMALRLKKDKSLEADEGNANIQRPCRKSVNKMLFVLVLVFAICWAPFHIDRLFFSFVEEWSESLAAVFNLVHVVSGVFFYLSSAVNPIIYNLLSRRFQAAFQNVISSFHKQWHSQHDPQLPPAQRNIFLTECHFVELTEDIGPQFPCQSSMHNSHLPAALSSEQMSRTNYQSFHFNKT

| calcium mobilization response | Substance |
| --- | --- |
| robust calcium mobilization responses | porcine Neuromedin U-8 [porcine NmU-8] |
| robust calcium mobilization responses | porcine Neuromedin U-25 (FLVDEEFQGPIVSQNRRYFLFRPRN; HOMO SAPIENS) [porcine NmU-25] |
| robust calcium mobilization responses | rat Neuromedin U-23 (YKVNEYQGPVAPSGGFFLFRPRN; HOMO SAPIENS) [rat NmU-23] |
